# Measurements taken from patent US20190343926A1 (priority 2017, published 2019).
# Tests used:
# [1] = 35 mU/kg IV every six minutes, ten bursts
# [2] = cited from earlier work
# [3] = 0.25 mU/kg/min continuous IV insulin infusion; cited from earlier work
substance,measurement,setting,value
insulin,burst at which steady state (Cmax and Cmin bands) is reached,[1],fourth burst
same,drop in glucose levels,"[2]; 40 mU/kg IV insulin over 3 minutes, over about 30 minutes",almost half
same,time for blood insulin to drop from 1000 to 500,[2]; 40 mU/kg IV over 3 minutes,~3 min
same,glucose decrease at steady state,[3],about 25%
